According to patent publication US20240270821A1, “GIP/GLP1/GCG TRI-RECEPTOR AGONISTS AND USES THEREOF” (priority 2023, published 2024):

T1: human GIP receptor (human) (UniProt P48546)
T1 sequence (looked up): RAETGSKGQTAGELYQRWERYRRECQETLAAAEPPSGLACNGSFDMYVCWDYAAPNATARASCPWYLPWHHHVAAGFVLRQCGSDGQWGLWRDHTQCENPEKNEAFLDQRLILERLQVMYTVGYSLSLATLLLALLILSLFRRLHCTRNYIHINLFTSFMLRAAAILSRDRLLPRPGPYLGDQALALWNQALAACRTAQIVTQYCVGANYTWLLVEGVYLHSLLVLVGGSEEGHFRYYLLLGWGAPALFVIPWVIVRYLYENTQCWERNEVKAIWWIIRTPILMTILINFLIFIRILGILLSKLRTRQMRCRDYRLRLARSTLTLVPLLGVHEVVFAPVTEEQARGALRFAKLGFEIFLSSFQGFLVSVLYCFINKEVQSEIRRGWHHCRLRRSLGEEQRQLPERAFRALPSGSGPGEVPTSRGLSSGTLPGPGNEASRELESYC


Tests used:
Assay in all cases: cell-based or functional assay
hGLP-1R = hGLP-1R (Homo sapiens, UniProt P43220)
[1] = target: T1, human GIP receptor (human)
[2] = target: human glucagon receptor (human) (UniProt P47871)
human glucagon receptor (human), sequence (P47871 26-477): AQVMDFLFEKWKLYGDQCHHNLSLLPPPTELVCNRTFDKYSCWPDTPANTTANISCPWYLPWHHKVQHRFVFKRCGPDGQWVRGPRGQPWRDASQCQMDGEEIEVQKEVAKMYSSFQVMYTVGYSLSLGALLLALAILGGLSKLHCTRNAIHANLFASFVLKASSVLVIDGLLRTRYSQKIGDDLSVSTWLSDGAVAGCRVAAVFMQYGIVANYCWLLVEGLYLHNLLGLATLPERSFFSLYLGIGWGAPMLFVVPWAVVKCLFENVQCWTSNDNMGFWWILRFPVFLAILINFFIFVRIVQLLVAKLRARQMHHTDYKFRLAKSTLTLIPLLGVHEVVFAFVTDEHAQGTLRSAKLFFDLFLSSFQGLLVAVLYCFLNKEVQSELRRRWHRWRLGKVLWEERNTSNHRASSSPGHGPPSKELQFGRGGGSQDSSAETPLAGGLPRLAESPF

hGLP-1R, sequence (P43220 24-463): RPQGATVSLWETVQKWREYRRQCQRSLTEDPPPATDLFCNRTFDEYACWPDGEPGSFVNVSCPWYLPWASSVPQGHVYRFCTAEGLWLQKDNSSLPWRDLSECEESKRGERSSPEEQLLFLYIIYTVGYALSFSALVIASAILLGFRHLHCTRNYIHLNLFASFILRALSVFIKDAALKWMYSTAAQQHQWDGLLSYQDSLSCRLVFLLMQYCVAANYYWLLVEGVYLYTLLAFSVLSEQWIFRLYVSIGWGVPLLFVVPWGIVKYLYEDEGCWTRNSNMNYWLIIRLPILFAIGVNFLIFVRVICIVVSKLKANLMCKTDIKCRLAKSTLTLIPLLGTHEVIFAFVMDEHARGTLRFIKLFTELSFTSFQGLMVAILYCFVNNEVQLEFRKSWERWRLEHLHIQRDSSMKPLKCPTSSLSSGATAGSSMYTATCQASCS

Binder | cAMP Rel EC50, nM (1% HSA) (hGLP-1R) | cAMP Rel EC50, nM (1% HSA) [1] | cAMP Rel EC50, nM (1% HSA) [2] | Relative cAMP EC50 (hGLP-1R) | Relative cAMP EC50 [1] | Relative cAMP EC50 [2]
YXQGTFTSDXSXXLDKKAQXAFIEXLIEGGPSSGAPPPSGSEE (Aib, 4Pal, Orn, αMeL, Me4Pal, acylated K, C-terminal amide; synthetic construct; SITE 2: note = 2-Aminoisobutyric Acid; SITE 10: note = 3-(4-Pyridyl)-L-alanine; SITE 12: note = L-ornithine; SITE 13: note = alpha-methyl-leucine; SITE 17: note = Lysine is chemically modified through conjugation of the epsilon-amino group of the Lysine side chain with (gamma-Gl)) [Example 958] | 850 nM | 27.1 nM | 340 nM | – | – | –
YXQGTFTSDXSXXLDXKAQXQFIEXLIEGGPSSGAPPPSGSEE (non-natural residues; (γGlu)2-C18 diacid on Lys; C-terminal amide; synthetic construct; SITE 2: note = 2-Aminoisobutyric Acid; SITE 10: note = 3-(4-Pyridyl)-L-alanine; SITE 12: note = L-ornithine; SITE 13: note = alpha-methyl-leucine; SITE 16: note = L-ornithine; SITE 17: note = Lysine is chemically modified through conjugation of the epsilon-amino group of the Lys) [Example 972] | 327 nM | 30.4 nM | 660 nM | – | – | –
YXQGTFTSDXSRXLDKKAQXAFIEXLIEGGPSSGAPPPSGSEE (acylated lysine AEEA-γGlu-C18 diacid; non-natural residues; C-terminal amide; synthetic construct; SITE 2: note = 2-Aminoisobutyric Acid; SITE 10: note = 3-(4-Pyridyl)-L-alanine; SITE 13: note = alpha-methyl-leucine; SITE 17: note = Lysine is chemically modified through conjugation of the epsilon-amino group of the Lysine side chain with (2-[2-(2-Amino-ethoxy)-ethoxy]-acetyl)) [Example 956] | 643 nM | 32.1 nM | 406 nM | – | – | –
YXQGTFTSDXSXXLDKKAQXAFIEYLIAGGPSSGAPPPSGSEE (Lys acylated (γGlu)2-C18 diacid; non-natural residues; C-amide; synthetic construct; SITE 2: note = 2-Aminoisobutyric Acid; SITE 10: note = 3-(4-Pyridyl)-L-alanine; SITE 12: note = L-ornithine; SITE 13: note = alpha-methyl-leucine; SITE 17: note = Lysine is chemically modified through conjugation of the epsilon-amino group of the Lysine side chain with (gamma-Gl)) [Example 961] | 216 nM | 13.6 nM | 342 nM | 2.52 nM | 0.167 nM | 2.96 nM
YXQGTFTSDXSXXLDXKAQXQFIEXLLEGGPSSGAPPPSGSEE (non-natural residues; acylated Lys; C-terminal amide; synthetic construct; SITE 2: note = 2-Aminoisobutyric Acid; SITE 10: note = 3-(4-Pyridyl)-L-alanine; SITE 12: note = L-ornithine; SITE 13: note = alpha-methyl-leucine; SITE 16: note = L-ornithine; SITE 17: note = Lysine is chemically modified through conjugation of the epsilon-amino group of the Lys) [Example 975] | 1810 nM | 30.1 nM | 374 nM | – | – | –
YXQGTFTSDXSRXLDKKAQXAFIEXLIEGGPSSGAPPPSGSEE (Aib, 4Pal, αMeL, Me4Pal; acylated Lys; C-terminal amide; synthetic construct; SITE 2: note = 2-Aminoisobutyric Acid; SITE 10: note = 3-(4-Pyridyl)-L-alanine; SITE 13: note = alpha-methyl-leucine; SITE 17: note = Lysine is chemically modified through conjugation of the epsilon-amino group of the Lysine side chain with (gamma-Glu)2-CO-(CH2)16-CO2H; SITE 20:) [Example 959] | 503 nM | 24.5 nM | 316 nM | – | – | –
YXQGTFTSDXSQXLDKKAQXAFIEYLIAGGPSSGEPPPSGSGE (non-natural residues; (γGlu)2-C18 diacid acyl; synthetic construct; SITE 2: note = 2-Aminoisobutyric Acid; SITE 10: note = 3-(4-Pyridyl)-L-alanine; SITE 13: note = alpha-methyl-leucine; SITE 17: note = Lysine is chemically modified through conjugation of the epsilon-amino group of the Lysine side chain with (gamma-Glu)2-CO-(CH2)16-CO2H; SITE 20:) [Example 971] | 294 nM | 30.2 nM | 1340 nM | 3.46 nM | 0.298 nM | 8.26 nM
YXQGTFTSDXSQXLDKKAQXAFIEYLIAGGPSSGAPPPSGSEE (Aib, 4Pal, Me4Pal, αMeL; lipidated Lys; C-terminal amide; synthetic construct; SITE 2: note = 2-Aminoisobutyric Acid; SITE 10: note = 3-(4-Pyridyl)-L-alanine; SITE 13: note = alpha-methyl-leucine; SITE 17: note = Lysine is chemically modified through conjugation of the epsilon-amino group of the Lysine side chain with (gamma-Glu)2-CO-(CH2)16-CO2H; SITE 20:) [Example 960] | 161 nM | 14.1 nM | 813 nM | 1.51 nM | 0.124 nM | 5.5 nM
YXQGTFTSDXSXXLDKKAQXAFIEXLIEGGPSSGAPPPSGS (acylated Lys, C-terminal amide, non-natural residues; synthetic construct; SITE 2: note = 2-Aminoisobutyric Acid; SITE 10: note = 3-(4-Pyridyl)-L-alanine; SITE 12: note = L-ornithine; SITE 13: note = alpha-methyl-leucine; SITE 17: note = Lysine is chemically modified through conjugation of the epsilon-amino group of the Lysine side chain with (gamma-Gl)) [Example 952] | 439 nM | 16.6 nM | 266 nM | – | – | –
YXQGTFTSDXSRXLDKKAQXAFIEXLIEGGPSSGAPPPSGS (Aib, 4Pal, αMeL, Me4Pal; lipidated Lys; C-terminal amide; synthetic construct; SITE 2: note = 2-Aminoisobutyric Acid; SITE 10: note = 3-(4-Pyridyl)-L-alanine; SITE 13: note = alpha-methyl-leucine; SITE 17: note = Lysine is chemically modified through conjugation of the epsilon-amino group of the Lysine side chain with (gamma-Glu)2-CO-(CH2)16-CO2H; SITE 20:) [Example 953] | 347 nM | 10.9 nM | 275 nM | – | – | –
YXQGTFTSDXSQXLDKKAQXAFIEYLIAGGPSSGAPPPEGS (non-natural residues, C18 diacid acylation; synthetic construct; SITE 2: note = 2-Aminoisobutyric Acid; SITE 10: note = 3-(4-Pyridyl)-L-alanine; SITE 13: note = alpha-methyl-leucine; SITE 17: note = Lysine is chemically modified through conjugation of the epsilon-amino group of the Lysine side chain with (gamma-Glu)2-CO-(CH2)16-CO2H; SITE 20:) [Example 969] | 113 nM | 12.6 nM | 660 nM | 1.21 nM | 0.142 nM | 5.48 nM
YXQGTFTSDXSQXLDKKAQXAFIEYLIAGGPSSGEPPPSGS (non-natural residues; lipidated Lys (γGlu)2-C18 diacid; C-term amide; synthetic construct; SITE 2: note = 2-Aminoisobutyric Acid; SITE 10: note = 3-(4-Pyridyl)-L-alanine; SITE 13: note = alpha-methyl-leucine; SITE 17: note = Lysine is chemically modified through conjugation of the epsilon-amino group of the Lysine side chain with (gamma-Glu)2-CO-(CH2)16-CO2H; SITE 20:) [Example 968] | 103 nM | 11.7 nM | 625 nM | 1.04 nM | 0.0928 nM | 4.72 nM
YXQGTFTSDXSXXLDKKAQXAFIEXLIEGGPSSGAPPPSGSE (acylated Lys (γGlu)2-C18 diacid; non-natural residues; C-terminal amide; synthetic construct; SITE 2: note = 2-Aminoisobutyric Acid; SITE 10: note = 3-(4-Pyridyl)-L-alanine; SITE 12: note = L-ornithine; SITE 13: note = alpha-methyl-leucine; SITE 17: note = Lysine is chemically modified through conjugation of the epsilon-amino group of the Lysine side chain with (gamma-Gl)) [Example 966] | 257 nM | 35.9 nM | 581 nM | – | – | –
